Data published in patent US20050032681A1 (TEMPLE UNIV OF THE COMMONWEALTH SYSTEM OF HIGHER EDUCATION …, published 2005).

Tests used:
human factor Xa = target: T1, human factor Xa (human, UniProt P00742 41-179; P00742 235-488, limits assumed); test: pseudo-first-order factor Xa inhibition kinetics, residual activity with S-2765, 25 C, polybrene
T1 construct: that the active enzyme has two chains is from general knowledge
Method: (§1) Forty μL aliquots of ATIII samples at varying concentrations (450 nM, 300 nM, 150 nM) in PNE-PEG plus 50 μL polybrene (to neutralize any contaminating heparin) were preloaded into quadruplicate wells of a low-binding 96-well assay plate (Corning). The plate was maintained at 25° C., and 20 μL aliquots of 30 nM human thrombin or 15 nM human factor Xa were added to each of the four wells at successive 5 minute intervals. Reactions were quenched 5 minutes after addition of enzyme to the last of the wells by the adding 100 μL of 1.5 mM chromogenic substrate (S-2238 for thrombin; S-2765 for factor Xa). Residual enzyme activity was measured on a BioTek ELS11X kinetic plate reader controlled by a Macintosh SE with Deltasoft software. Initial rates of chromogenic substrate cleavage were monitored at 405 nm.

[1] = target: T2, human neutrophil elastase (human, UniProt P08246 30-247, limits assumed); test: cell-based or functional assay
T2 sequence (looked up): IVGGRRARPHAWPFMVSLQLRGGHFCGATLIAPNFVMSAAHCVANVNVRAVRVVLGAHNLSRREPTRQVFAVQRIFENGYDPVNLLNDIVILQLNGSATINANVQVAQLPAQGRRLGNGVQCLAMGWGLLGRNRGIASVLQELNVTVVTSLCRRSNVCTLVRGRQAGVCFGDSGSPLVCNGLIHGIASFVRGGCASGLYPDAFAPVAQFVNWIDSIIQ

Human Cathepsin G = target: T3, Human Cathepsin G (human, UniProt P08311 21-244); test: cell-based or functional assay
T3 sequence (looked up): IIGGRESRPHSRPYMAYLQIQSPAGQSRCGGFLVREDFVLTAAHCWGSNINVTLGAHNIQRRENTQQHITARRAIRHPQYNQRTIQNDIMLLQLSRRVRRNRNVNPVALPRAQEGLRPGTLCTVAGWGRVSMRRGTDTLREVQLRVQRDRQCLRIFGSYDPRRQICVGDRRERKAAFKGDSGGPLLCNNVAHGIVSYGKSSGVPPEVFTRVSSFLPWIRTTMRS

human α-thrombin = human α-thrombin (human, UniProt P00734 328-363; P00734 364-622); test: pseudo-first-order thrombin inhibition kinetics, residual activity with S-2238, 25 C, polybrene
Method: as §1

T1 sequence (P00742 41-179 limits assumed, chain 1 of 2): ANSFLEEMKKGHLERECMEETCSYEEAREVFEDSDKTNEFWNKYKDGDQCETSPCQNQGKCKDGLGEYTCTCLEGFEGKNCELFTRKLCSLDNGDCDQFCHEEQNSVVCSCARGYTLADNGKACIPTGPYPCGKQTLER
T1 sequence (P00742 235-488 limits assumed, chain 2 of 2): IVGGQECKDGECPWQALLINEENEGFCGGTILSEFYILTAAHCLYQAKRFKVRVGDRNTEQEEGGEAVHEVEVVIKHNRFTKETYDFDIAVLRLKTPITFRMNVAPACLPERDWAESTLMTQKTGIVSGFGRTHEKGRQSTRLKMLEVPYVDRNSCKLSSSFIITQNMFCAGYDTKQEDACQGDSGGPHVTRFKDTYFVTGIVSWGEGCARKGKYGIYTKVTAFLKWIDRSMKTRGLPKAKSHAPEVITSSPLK

Row | Binder | kapp (apparent second-order rate constant of association) (human factor Xa) [M⁻¹ s⁻¹] | HNE resistance T1/2, min [1] [min] | Cathepsin G resistance T1/2, min (Human Cathepsin G) [min] | kapp (apparent second-order rate constant of association) (human α-thrombin) [M⁻¹ s⁻¹]
1 | Bb modified ATIII (on human ATIII.N135A background) (other, Recombinant, baculovirus/Sf9, N135A background; also called AT.Bb; Bb mutant) HGSPVDICTAKPRDIPMNPMCIYRSPEKKATEDEGSEQKIPEATNRRVWELSKANSRFATTFYQHLADSKNDNDNIFLSPLSISTAFAMTKLGACNDTLQQLMEVFKFDTISEKTSDQIHFFFAKLNCRLYRKAAKSSKLVSANRLFGDKSLTFNETYQDISELVYGAKLQPLDFKENAEQSRAAINKWVSNKTEGRITDVIPSEAINELTVLVLVNTIYFKGLWKSKFSPENTRKELFYKADGESCSASMMYQEGKFRYRRVAEGTQVLELPFKGDDITMVLILPKPEKSLAKVEKELTPEVLQEWLDELEEMMLVVHMPRFRIEDGFSLKEQLQDMGLVDLFSPEKSKLPGIVAEGRDDLYVSDAFHKAFLEVNEEGSEAAASTEGFFSGRSLNPNRVTFKANRPFLVFIREVPLNTIIFMGRVANPCVK | 4500 | 15.8 | 1.4 | 3600
2 | FF modified ATIII (on human ATIII.N135A background) (other, Recombinant, baculovirus/Sf9, N135A background; also called AT.FF) HGSPVDICTAKPRDIPMNPMCIYRSPEKKATEDEGSEQKIPEATNRRVWELSKANSRFATTFYQHLADSKNDNDNIFLSPLSISTAFAMTKLGACNDTLQQLMEVFKFDTISEKTSDQIHFFFAKLNCRLYRKAAKSSKLVSANRLFGDKSLTFNETYQDISELVYGAKLQPLDFKENAEQSRAAINKWVSNKTEGRITDVIPSEAINELTVLVLVNTIYFKGLWKSKFSPENTRKELFYKADGESCSASMMYQEGKFRYRRVAEGTQVLELPFKGDDITMVLILPKPEKSLAKVEKELTPEVLQEWLDELEEMMLVVHMPRFRIEDGFSLKEQLQDMGLVDLFSPEKSKLPGIVAEGRDDLYVSDAFHKAFLEVNEEGSEAAASTAVFFAGRSLNPNRVTFKANRPFLVFIREVPLNTIIFMGRVANPCVK | 3000 | < 2.5 | – | 1400
3 | Bb.B modified ATIII (on human ATIII.N135A background) (other, Recombinant, baculovirus/Sf9, N135A background; also called AT.Bb.B) HGSPVDICTAKPRDIPMNPMCIYRSPEKKATEDEGSEQKIPEATNRRVWELSKANSRFATTFYQHLADSKNDNDNIFLSPLSISTAFAMTKLGACNDTLQQLMEVFKFDTISEKTSDQIHFFFAKLNCRLYRKAAKSSKLVSANRLFGDKSLTFNETYQDISELVYGAKLQPLDFKENAEQSRAAINKWVSNKTEGRITDVIPSEAINELTVLVLVNTIYFKGLWKSKFSPENTRKELFYKADGESCSASMMYQEGKFRYRRVAEGTQVLELPFKGDDITMVLILPKPEKSLAKVEKELTPEVLQEWLDELEEMMLVVHMPRFRIEDGFSLKEQLQDMGLVDLFSPEKSKLPGIVAEGRDDLYVSDAFHKAFLEVNEEGSEAAASTEGEGSGRSLNPNRVTFKANRPFLVFIREVPLNTIIFMGRVANPCVK | 700 | 44.8 | 16.2 | –
4 | Bb.A modified ATIII (on human ATIII.N135A background) (other, Recombinant, baculovirus/Sf9, N135A background; also called AT.Bb.A) HGSPVDICTAKPRDIPMNPMCIYRSPEKKATEDEGSEQKIPEATNRRVWELSKANSRFATTFYQHLADSKNDNDNIFLSPLSISTAFAMTKLGACNDTLQQLMEVFKFDTISEKTSDQIHFFFAKLNCRLYRKAAKSSKLVSANRLFGDKSLTFNETYQDISELVYGAKLQPLDFKENAEQSRAAINKWVSNKTEGRITDVIPSEAINELTVLVLVNTIYFKGLWKSKFSPENTRKELFYKADGESCSASMMYQEGKFRYRRVAEGTQVLELPFKGDDITMVLILPKPEKSLAKVEKELTPEVLQEWLDELEEMMLVVHMPRFRIEDGFSLKEQLQDMGLVDLFSPEKSKLPGIVAEGRDDLYVSDAFHKAFLEVNEEGSEAAASTEGEASGRSLNPNRVTFKANRPFLVFIREVPLNTIIFMGRVANPCVK | 6200 | 27.4 | > 45 | 500
5 | LEAI modified ATIII (on human ATIII.N135A background) (other, substitutions derived against S T A V V I A G R with the numbering of footnote c; also called AT3.LEAI) HGSPVDICTAKPRDIPMNPMCIYRSPEKKATEDEGSEQKIPEATNRRVWELSKANSRFATTFYQHLADSKNDNDNIFLSPLSISTAFAMTKLGACNDTLQQLMEVFKFDTISEKTSDQIHFFFAKLNCRLYRKAAKSSKLVSANRLFGDKSLTFNETYQDISELVYGAKLQPLDFKENAEQSRAAINKWVSNKTEGRITDVIPSEAINELTVLVLVNTIYFKGLWKSKFSPENTRKELFYKADGESCSASMMYQEGKFRYRRVAEGTQVLELPFKGDDITMVLILPKPEKSLAKVEKELTPEVLQEWLDELEEMMLVVHMPRFRIEDGFSLKEQLQDMGLVDLFSPEKSKLPGIVAEGRDDLYVSDAFHKAFLEVNEEGSEAAASTALEAIGRSLNPNRVTFKANRPFLVFIREVPLNTIIFMGRVANPCVK | 7000 | 2.8 | 6.1 | 3600
